{"source": "patent US20220135640A1", "about": "“CORTISTATIN OR AN ANALOGUE THEREOF AS A PHARMACEUTICALLY ACTIVE AGENT IN LATENT FORM” (CONSEJO SUPERIOR DE INVESTIGACIONES CIENTIFICAS (CSIC), priority 2019, published 2022)", "molecules": {"B1": {"name": "LAP-CST: fusion protein of LAP of TGFβ-1 (Met1-Ser273), MMP cleavage site PLGLWA flanked by GGGGS linkers, and rat cortistatin-29 (protein)", "chain": "MPPSGLRLLPLLLPLLWLLVLTPGRPAAGLSTCKTIDMELVKRKRIEAIRGQILSKLRLASPPSQGEVPPGPLPEAVLALYNSTRDRVAGESAEPEPEPEADYYAKEVTRVLMVETHNEIYDKFKQSTHSIYMFFNTSELREAVPEPVLLSRAELRLLRLKLKVEQHVELYQKYSNNSWRYLSNRLLAPSDSPEWLSFDVTGVVRQWLSRGGEIEGFRLSAHCSCDSRDNTLQVDINGFTTGRRGDLATIHGMNRPFLLLMATPLERAQHLQSEFGGGGSPLGLWAGGGGSAAAQERPPLQQPPHRDKKPCKNFFWKTFSSCK", "modifications": "Fusion peptide"}}, "key": {"[1]": {"system": "LAP-GS-MMP-GS-CST-29r fusion protein (SP-LAP-L1-MMP-L2-CST29r)"}, "[2]": {"assay": "Stability of cortistatin-29, free versus in LAP-CST, at room temperature", "format": "physicochemical", "protocol": "On the other hand, whereas the amount of recombinant cortistatin-29 decreased in a 82% after 15 minutes at room temperature, the amount of cortistatin-29 in LAP-CST remains stable for at least 7 days."}, "sstrt2 receptor": {"molecular_target": "sstrt2 receptor (Homo sapiens, UniProt P30874)", "sequence (P30874 whole entry)": "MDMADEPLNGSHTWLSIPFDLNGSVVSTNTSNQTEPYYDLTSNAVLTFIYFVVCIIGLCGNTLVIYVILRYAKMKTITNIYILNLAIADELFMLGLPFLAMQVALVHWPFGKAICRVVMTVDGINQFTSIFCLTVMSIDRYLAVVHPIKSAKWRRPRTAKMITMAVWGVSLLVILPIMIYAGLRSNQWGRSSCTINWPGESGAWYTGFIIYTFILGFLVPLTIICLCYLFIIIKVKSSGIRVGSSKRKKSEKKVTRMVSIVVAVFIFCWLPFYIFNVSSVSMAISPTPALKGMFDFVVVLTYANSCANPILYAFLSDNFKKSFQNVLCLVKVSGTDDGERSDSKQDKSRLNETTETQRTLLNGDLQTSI", "settings": "cited from earlier work"}, "sstr4": {"molecular_target": "sstr4 (Homo sapiens, UniProt P31391)", "sequence (P31391 whole entry)": "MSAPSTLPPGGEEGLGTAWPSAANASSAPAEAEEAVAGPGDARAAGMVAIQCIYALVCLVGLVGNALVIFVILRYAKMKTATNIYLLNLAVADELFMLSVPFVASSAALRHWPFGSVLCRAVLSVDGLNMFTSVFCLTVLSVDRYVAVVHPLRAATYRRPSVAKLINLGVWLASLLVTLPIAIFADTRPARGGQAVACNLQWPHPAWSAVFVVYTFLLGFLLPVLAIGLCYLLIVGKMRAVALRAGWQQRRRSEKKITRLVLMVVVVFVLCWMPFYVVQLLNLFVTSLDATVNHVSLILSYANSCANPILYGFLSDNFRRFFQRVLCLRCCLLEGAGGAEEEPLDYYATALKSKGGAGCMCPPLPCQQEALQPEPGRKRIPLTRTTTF", "settings": "cited from earlier work"}, "sstr1": {"molecular_target": "sstr1 (Homo sapiens, UniProt P30872)", "sequence (P30872 whole entry)": "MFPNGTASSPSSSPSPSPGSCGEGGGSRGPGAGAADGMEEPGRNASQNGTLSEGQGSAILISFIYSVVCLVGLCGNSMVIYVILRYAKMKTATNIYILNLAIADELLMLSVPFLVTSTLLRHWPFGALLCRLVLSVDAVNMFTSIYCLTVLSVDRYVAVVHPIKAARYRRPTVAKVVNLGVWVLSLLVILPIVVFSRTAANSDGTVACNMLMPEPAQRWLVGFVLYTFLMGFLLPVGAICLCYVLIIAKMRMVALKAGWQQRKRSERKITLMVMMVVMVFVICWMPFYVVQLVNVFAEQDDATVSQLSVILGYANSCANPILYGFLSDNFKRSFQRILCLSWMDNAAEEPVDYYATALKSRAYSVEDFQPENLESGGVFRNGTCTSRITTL", "settings": "cited from earlier work"}, "[3]": {"settings": "cited from earlier work"}, "[4]": {"system": "somatostatin receptors, sstr1-sstr5", "settings": "cited from earlier work"}, "[5]": {"system": "dermal fibrosis induced by bleomycin", "assay": "Bleomycin-induced dermal sclerodermia, local treatment", "format": "in vivo, C57Bl/6 mice", "protocol": "FIG. 2 illustrates the experiments performed wherein sclerodermia was induced by intradermal injection of bleomycin (3 times per week, during four weeks) in an area of […] in the dorsal skin of C57Bl/6 mice. Mice were locally treated around the lesion area with saline (group bleomycin), with cortistatin (group belomycin+CST, 3 time per week, 10 ng each time), with empty LAP vector (Bleomycin+LAP, once a week, 20 pg) or with LAP-CST (Bleomycin+LAP-CST, once a week, 20 pg). Naïve animals without bleomycin were used as basal control reference. After four weeks, lesioned skin area was dissected and processed for histological analysis using Mason Trichromic staining. Skin thickness (from epidermis to hypodermis) was quantified using Image J program. Fibrotic deposits in skin are stained in blue in sections. […] Skin thickness (from epidermis to hypodermis) was quantified using Image J program. […]"}, "recombinant MMP1": {"molecular_target": "T1, recombinant MMP1 (Homo sapiens, UniProt P03956)", "T1 sequence (P03956 100-469)": "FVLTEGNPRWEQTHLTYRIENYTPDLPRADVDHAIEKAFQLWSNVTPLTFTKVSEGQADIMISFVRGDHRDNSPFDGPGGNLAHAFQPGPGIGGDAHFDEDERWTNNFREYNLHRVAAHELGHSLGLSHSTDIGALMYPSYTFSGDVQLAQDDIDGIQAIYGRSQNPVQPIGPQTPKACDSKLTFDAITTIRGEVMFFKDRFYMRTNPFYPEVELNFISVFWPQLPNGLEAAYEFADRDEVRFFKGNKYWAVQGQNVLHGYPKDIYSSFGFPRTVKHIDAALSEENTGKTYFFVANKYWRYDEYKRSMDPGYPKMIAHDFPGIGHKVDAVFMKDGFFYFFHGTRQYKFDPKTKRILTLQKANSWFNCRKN", "assay": "Treatment of LAP-CST supernatants with recombinant MMP1, Cortistatin-29 recovered", "format": "biochemical", "settings": "48 h supernatants treated with recombinant MMP1; diminished from 80 ng; 12 hours later", "source_text": "The amount of LAP-MMP-CST-29r peptide in culture supernatants was indirectly determined by measuring the concentration of rat Cortistatin-29 by using a specific ELISA (Phoenix Pharmaceuticals)."}, "[6]": {"system": "liver fibrosis induced by CCl4", "assay": "CCl4-induced liver fibrosis", "format": "in vivo, C57Bl/6 mice", "settings": "systemic, once a week, 100 pg/mouse, 6 weeks", "protocol": "FIG. 4 is a quantification of liver fibrosis and tissue damage using Image J program and scored using an established clinical ISHAK index from 0 to 4 in a blinded fashion.\nLiver fibrosis was induced by intraperitoneal injection of CCl4 (3:9 in olive oil, 40 μl/mouse, every three days) in C57Bl/6 mice. Mice were treated three times a week with cortistatin (500 ng/mouse) or once a week with LAP-CST (100 pg/mouse). After 6 weeks, liver was dissected and processed for histological analysis using Mason Trichromic staining and Sirius Red staining. Liver fibrosis and tissue damage were quantified using Image J program and scored using an established clinical ISHAK index from 0 to 4 in a blinded fashion (FIG. 4)."}, "[7]": {"system": "bleomycin-induced lung fibrosis", "assay": "Bleomycin-induced lung fibrosis, nasal inhalation (Example 3)", "format": "in vivo, C57Bl/6 mice", "settings": "once a week, 20 pg", "protocol": "(§1) FIG. 3 illustrates the experiments performed wherein lung fibrosis was induced by intratracheal injection of bleomycin (50 μg/kg body weight, dissolved in 50 μl of saline) in C57Bl/6 mice. Mice were treated by nasal inhalation of saline (group bleomycin+saline), cortistatin (group belomycin+CST, 3 times per week, 10 ng each time), or LAP-CST (Bleomycin+LAP-CST, once a week, 20 pg). After 18 days, lungs were dissected and processed for histological analysis using Mason Trichromic staining and Sirius Red staining. Lung fibrosis and tissue damage were quantified using Image J program and scored using an established clinical index from 0 to 4 in a blinded fashion. Mortality caused by fibrosis is shown in this figure.\nas §1, with “Lung” for “FIG. 3 illustrates the experiments performed wherein lung”, “fashion.” for “fashion. Mortality caused by fibrosis is shown in this figure.”"}, "[8]": {"system": "bleomycin-induced lung fibrosis", "assay": "Bleomycin-induced lung fibrosis, comparison of LAP constructs (Example 5)", "format": "in vivo, C57Bl/6 mice", "settings": "nasal inhalation, once a week, 20 pg, 18 days", "protocol": "FIG. 5. Lung fibrosis and tissue damage were quantified using Image J program and scored using an established clinical index from 0 to 4 in a blinded fashion. Mortality caused by fibrosis is shown in this figure.\nLung fibrosis was induced by intratracheal injection of bleomycin (50 μg/kg body weight, dissolved in 50 μl of saline) in C57Bl/6 mice. Mice were treated once a week by nasal inhalation of 20 pg of empty LAP (A), LAP containing only cortistatin (B), LAP containing cortistatin and linkers LAP-L1L2-CST but not MMP site (C), or LAP containing cortistatin, linkers and MMP site (D). After 18 days, lungs were dissected and processed for histological analysis using Mason Trichromic staining and Sirius Red staining. Lung fibrosis and tissue damage were quantified using Image J program and scored using an established clinical index from 0 to 4 in a blinded fashion."}}, "note": "Bridge positions count the residues as written; N and C are the ends. Ends that are not written are not given here.", "data": [{"molecule": "recombinant MMP1", "values": [{"measurement": "amount of Cortistatin-29 (indirectly measuring LAP-CST) recovered from the culture, 12 hours after MMP1 treatment", "setting": "[1]", "value": "diminished from 80 ng to 20 ng, 12 hours later"}, {"measurement": "amount of Cortistatin-29 (indirectly measuring LAP-CST) recovered from the culture, before MMP1 treatment", "setting": "[1]", "value": "diminished from 80 ng to 20 ng, 12 hours later"}]}, {"molecule": "cortistatin-29: rat sequence of cortistatin, 29 amino acids (GenBank: EDL81150.1) (QERPPLQQPPHRDKKPCKNFFWKTFSSCK-OH; disulfide 17-28 (inferred); ends not checked; UniProt Q62949 84-112, looked up) [reference compound]", "values": [{"measurement": "decrease of the amount of cortistatin-29", "setting": "[2]; after 15 minutes at room temperature", "value": 82, "unit": "%"}]}, {"molecule": "C[C@@H](O)[C@@H]1NC(=O)[C@H](CCCCN)NC(=O)[C@@H](Cc2c[nH]c3ccccc23)NC(=O)[C@H](Cc2ccccc2)NC(=O)[C@@H](NC(=O)[C@H](N)Cc2ccccc2)CSSC[C@@H](C(=O)N[C@H](CO)[C@@H](C)O)NC1=O", "note": "[octreotide]", "values": [{"measurement": "binding to the sstrt2 receptor", "setting": "sstrt2 receptor", "value": "keeps binding"}, {"measurement": "affinity to the sstr4 receptor", "setting": "sstr4", "value": "completely loses its affinity"}, {"measurement": "affinity to the sstr1 receptor", "setting": "sstr1", "value": "completely loses its affinity"}]}, {"molecule": "cortistatin", "values": [{"measurement": "blood half-life", "setting": "[3]", "value": "a few minutes"}, {"measurement": "affinity to somatostatin receptors", "setting": "[4]", "value": "nanomolar affinity"}]}, {"molecule": "B1", "values": [{"measurement": "dermal fibrosis (skin thickness, Mason Trichromic staining)", "setting": "[5]; local, once a week, 20 pg, four weeks, compared with LAP alone, as effective as cortistatin 10 ng 3 times per week", "value": "effective in reducing dermal fibrosis"}, {"measurement": "effectiveness of a single injection relative to recombinant cortistatin", "setting": "[5]; weekly 20 pg versus cortistatin 3 times per week at 500-fold higher concentration", "value": "at least 1,500 times"}, {"measurement": "amount of Cortistatin-29 (indirectly measuring LAP-CST) recovered from the culture", "setting": "recombinant MMP1", "value": 20, "unit": "ng"}, {"measurement": "time the amount of cortistatin-29 remains stable", "setting": "[2]; cortistatin-29 in LAP-CST", "value": "at least 7 days"}, {"measurement": "survival", "setting": "[6]; mortality of 50% in untreated mice", "value": 100, "unit": "%"}, {"measurement": "liver fibrotic area", "setting": "[6]; similar to cortistatin 500 ng/mouse three times a week", "value": "significantly reduced liver fibrotic area"}, {"measurement": "lung fibrosis and damage", "setting": "[7]; 18 days, as effective as cortistatin 3 times per week at 500-fold higher dose", "value": "significantly reduced lung fibrosis and damage"}, {"measurement": "survival", "setting": "[7]; bleomycin alone causes 80% of mortality", "value": "dramatically increased survival"}, {"measurement": "protection versus bleomycin-induced lung fibrosis and mortality", "setting": "[8]", "value": "protected"}]}]}
